Experimental data published in patent US11905525B2, “Reduction of elimination of immune responses to non-intravenous, e.g., subcutaneously administered therapeutic proteins” (ModernaTX, Inc., priority 2017, dated 2024).

Tested on: accelerated blood clearance (ABC)
Test: Accelerated blood clearance (ABC) upon subsequent administration of LNP with a B cell targeting agent
Format: in vivo
Settings: combination with the LNP

## Rituximab: monoclonal antibody against the protein CD20
  ABC upon subsequent administration of LNP: significantly reduced ABC
